Source: IntAct's records for PubMed 23612611

B1: E3 ubiquitin-protein ligase CHIP (Mus musculus), Q9WUD1 (parent)
chain: MKGKEEKEGGARLGTGGGGSPDKSPSAQELKEQGNRLFVGRKYPEAAACYGRAITRNPLVAVYYTNRALCYLKMQQPEQALADCRRALELDGQSVKAHFFLGQCQLEMESYDEAIANLQRAYSLAKEQRLNFGDDIPSALRIAKKKRWNSIEERRIHQESELHSYLTRLIAAERERELEECQRNHEGHEDDGHIRAQQACIEAKHDKYMADMDELFSQVDEKRKKRDIPDYLCGKISFELMREPCITPSGITYDRKDIEEHLQRVGHFDPVTRSPLTQEQLIPNLAMKEVIDAFISENGWVEDY
partner: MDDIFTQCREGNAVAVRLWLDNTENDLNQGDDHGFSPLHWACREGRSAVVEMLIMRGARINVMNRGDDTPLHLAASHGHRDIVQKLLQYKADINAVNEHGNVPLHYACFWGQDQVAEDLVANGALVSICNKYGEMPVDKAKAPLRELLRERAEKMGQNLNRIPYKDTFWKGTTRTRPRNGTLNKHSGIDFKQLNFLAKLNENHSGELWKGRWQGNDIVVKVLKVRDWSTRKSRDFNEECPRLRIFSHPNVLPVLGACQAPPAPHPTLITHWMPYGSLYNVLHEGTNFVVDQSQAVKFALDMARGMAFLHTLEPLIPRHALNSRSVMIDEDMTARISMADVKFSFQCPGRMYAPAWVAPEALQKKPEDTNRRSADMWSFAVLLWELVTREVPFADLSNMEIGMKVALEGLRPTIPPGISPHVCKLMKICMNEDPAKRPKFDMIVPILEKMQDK

Variants of: B1
Conditions: with ilk_mouse Ilk
For K31A, the “effect of a mutation on the interaction” value was “decreasing interaction”.
